Results reported in patent US20230374114A1 (Dana-Farber, published 2023).
Residue numbers refer to the chain shown, from its start.

B1: Ab_16 (scFv, V domains shown)
VH: QVQLVQSGGGVVQPGRSLRLSCAASGFTFSNYGMHWVRQAPGKGLEWVALIWERGSKKDYADSVKGRFTVSRDNSKNTLYLQMNSLRPEDTAVYFCAREGISMTGAEYFQHWGQGTLVTVSS
VL: QSVLTQPPSVSGSPGQRVTMSCTGSSSNIGAGYDVHWYQQVPGAAPRLLIYGTNNRPSGVPDRFSGSKSGTSASLTITGLQAEDEADYYCQSYDNSLTDPYVFGTGTKVTVL
B2: Ab_18 (scFv, V domains shown)
VH: EVQLVQSGGGVVQPGRSLRVSCAASGFSFSRYGMHWVRQAPGKGLEWVAFIRHDGSKKYYADSVEGRFTISRDNSRNTVSLEMNSLRGEDTAVYYCAKDGRLEAALDDWGQGTLVTVSS
VL: NFMLTQPHSMSGSAGKTVTVSCIRSSGSIANNFVQWYQQRPGSAPTTVIYEDNQRPSGVPDRFSGSIDSSSNSASLTISGLKTEDEADYYCQSYDSSNLVFGGGTRLTVL
B3: S1-RBD-R3-T1-C7 Ab (Ab 29) (scFv, V domains shown)
VH: QVQLQQSGPGLVKPSQTLSLTCAISGDSVSSYSDAWNWIRQSPSRGLEWLGRTYYRSKWYNDYAVSVKSRITINPDTSKNQFSLQLSSVTPEDTAVYYCAREIVATTPFRNYYYGMDVWGQGTTVTVSS
VL: NFMLTQPHSVSESPGNTVTISCTRTSGSIASNYVQWYQQRPGSSPTTVIFQDKLRPSGVPDRFSGSIDSSSNSASLTISGLKTEDEADYYCQSYDSSSLWVFGGGTKLTVL
B4: Ab 26 (scFv, V domains shown)
VH: QVQLVQSGGGLVQPGRSLRLSCAASGFTFDDYAMHWVRQVPGKGLEWVSGIDWNSGVIGYADSVKGRFTISRDNAKNSLYLQMNSLRAEDTALYYCAKDAYSYGFLGAFDIWGQGTMVTVSS
VL: LPVLTQPPSVSVAPGQTASITCGGDNIRTKGVHWYQQKPGQAPLLVIYYASDRPSGIPERFSGSSSGNTATLTISRVEAGDEADYYCQVWDSSSDLVVFGGGTTLTVL
B5: Ab_19 (scFv, V domains shown)
VH: EVQLVESGAEVKKPGESLKISCKGSGYSFTSYWIGWVRQMPGKGLEWMGIIYPGDSDTRYSPSFQGQVTISADKSISTAYLQWSSLKASDTAMYYCARRGDLDAFDIWGQGTMVTVSS
VL: QPGLTQPPAASGTPGQRVTVSCSGASANIGSNAVSWFKQFPETAPRLLISGNTHRPSGVPDRVSGSKSGTSASLTISGLQSDDEADYYCAAWDDSLNGYVFGSGTKVTVL
B6: RBD-R3-E1-A5 Ab (Ab_30) (scFv, V domains shown)
VH: QVQLVQSGGGVVQPGKSLRLSCTASGFTFSDFPIHWVRQAPGKGLEWVGVISYDGNIKYYGDSVKGRFTISRDNAKNSLYLQMNSLRVEDTAVYYCARGGSSFDIWGQGTTVTVSS
VL: SYELTQPPSVSEAPRQRVTISCSGSTSNIGNNAVSWYQHLPGKAPKLLIYYNERLPSGVSDRFSGSKSGTSASLAISGLRSEDEADYYCAAWDDSLSGHVVFGGGTKLTVL
B7: Ab 27 (scFv, V domains shown)
VH: QVQLVQSGTEVKKPGASVKVSCKASGYSFTGSHLHWVRQAPGQGLEWMGWINPDSGVINYAQKFQGRVTLTRDTSISTAYMELSGLRSDDTAVYYCARDKAIGYVWALDYWGQGTLVTVSS
VL: QSALTQPPSVSGSPGQSVTISCTGTSSDVGTYNRVSWYQQPPGKAPKLMIYEVSNRPSGVSNRFSGSKSGNTASLTISGLQAEDEADYYCSSYTRTFTYVFGTGTKVTVL
B8: Ab 23 (scFv, V domains shown)
VH: EVQLVQSGAEVKKPGSSVKVSCRSSGGTFSTYGITWVRQAPGQGLEWMGRIIPSLGIPNYAQKFQGRVTITADTSVSTAWMELSSLESDDTAIYYCARENIDLATNDFWGQGTLVTVSS
VL: QSALTQPPSASGSPGQSVTISCTGTSRDIGAYGYVSWYQQVPGKAPKLIIYEVRNRPSGVSSRFSGSKSGNTASLTISGLQAEDEADYYCSSYTSSSTLDVVFGGGTKLTVL
B9: RBD-R3-E1-B3 Ab (Ab_32) (scFv, V domains shown)
VH: QVQLVQSGAEVKKPGESLKISCKGSGYSFTSYWIGWVRQMPGKGLEWMGIIYPGDSDTRYSPSFQGQVTISADKSISTAYLQWSSLKASDTAMYYCARGWQWHDYWGQGTLVTVSS
VL: QTVVTQEPAVSVALGQTVRITCQGDSLRSYYASWYQQKPGQAPVLVVYDKDKRPSGIPDRFSGSTSGNTASLTITGAQAEDEADYYCNSRDRSDNHVVFGGGTKLTVL
B10: Ab_14 (scFv, V domains shown)
VH: QVQLQQSGPGLVKPSQTLSLTCAISGDSVSSNSAAWNWIRQSPARGLEWLGRTYYRSRWYNDYAISMKSRITINPDTSKNQFSLQLESVTPEDTAVYYCAREIRGFDYWGQGTLVTVSS
VL: QSVLTQPPSASGSPGQSVTISCTGTSSDVGAYNFVSWYQHHPGKAPKLIIYDFNKRPSGVPDRFSGSKSGNTASLTVSGLQADDEADYYCSSYAGSNNFDVVFGGGTKLTVL
B11: Ab 20 (scFv, V domains shown)
VH: QVQLVQSGGGSVKPGGSLRLSCAASGYRLSDYYMHWVRQAPGKGLEWVANIKQDGSEKYYVDSVKGRFTISRDNAKNSLYLQMNSLRAEDTAVYYCARVRGWSRGYFDYWGQGTLVTVSS
VL: NFMLTQPHSVSESPGKTVTISCTGSSGSIASNYVQWYQQRPGSAPTTVIYEDNQRPSGVPDRFSGSIDSSSNSASLLISGLKTEDEADYYCQSYDSSNHWVFGGGTKLTVL
B12: Ab 25 (scFv, V domains shown)
VH: QVQLVQSGGGLVQPGGSLRLSCAASGFTFSSYWMSWVRQAPGKGLEWVANIKQDGSEKYYVDSVKGRFTISRDNAKNSLYLQMNSLRAEDTAVYYCARGFYYYGAFDIWGQGTTVTVSS
VL: B11 VL with D68G, L77T
B13: S1-RBD-R3-T1-B12 Ab (Ab_31) (scFv, V domains shown)
VH: QVQLVQSGAEVKKPGSSVKVSCKASGGTFSSYTISWVRQAPGQGLEWMGGIIPILGTPNYAQKFQDRVAITADKSTSTAYMELSSLRSEDTAVYYCAVGSGWYSGFDYWGQGTLVTVSS
VL: B11 VL with N53S, L77T, Y94F, D95H, S96N, H99P, W100V, V101I
B14: Ab 28 (scFv, V domains shown)
VH: QVTLKESGPGLVNPSETLSLTCTVSGASISNSFWSWIRQSPGKGLEWIGYTSYSGNSIYNPSLKSRLTMSIDTSKNQLSLNLRSLTAADTAVYYCARREWIKGHFDYWGQGTLVTVSS
VL: B11 VL with S26G, L77T, H99P, W100V
B15: Ab_17 (scFv, V domains shown)
VH: QVQLVQSGGGVVQPGRSLRLSCAASGFTFDDYAMHWVRQVPGKGLEWVSGIDWNSGVIGYADSVKGRFTISRDNVKNSLYLQMNSLRTEDSALYYCAKDIGPGGSGSYYAFDIWGQGTTVTVSS
VL: QSALTQPASVSGSPGQSITISCTGTSSDVGGSKYVSWYQQHPGKAPKVMIYDVTKRPSGVPDRFSGSKSGNTASLTISGLQAEDEADYYCAAWDDSLNGVVFGGGTKLTVL
B16: Ab 21 (scFv, V domains shown)
VH: QVQLVQSGGGLVQPGGSLRLSCATSGFTFDDYAMHWVRQAPGKGLEWVSGISWNSGSIGYVDSVKGRFTISRDNRNNKVYLQMNNLRAEDTAVYYCARDWWGSIDHWGLGTLVTVSS
VL: QSALTQPRSVSGSPGQSVTISCTGTSSDVGGYDYVSWYQQHPGKAPKLIIYDVSKRPSGVPDRFSGSKSGNTASLTVSGLQAEDEADYYCSSYTSSSPVVFGGGTKLTVL

Biological target: D614G Spike (SARS-CoV-2, UniProt P0DTC2 16-1213)

| Binder | Kd |
| --- | --- |
| B1 | 8.35 pM |
| B2 | 6.33 pM |
| B3 | 1.04 pM |
| B4 | 9.97 pM |
| B5 | 10.9 pM |
| B6 | 7.43 pM |
| B7 | 7.53 pM |
| B8 | 8.82 pM |
| B9 | 7.26 pM |
| B10 | 8.12 pM |
| B11 | 8.64 pM |
| B12 | 8.56 pM |
| B13 | 9.03 pM |
| B14 | 9.41 pM |
| B15 | 6.8 pM |
| B16 | 8 pM |
